Residue numbers refer to the chain shown, from its start.

The experiment deals with T1, Human ST2 (human, UniProt Q01638 19-328, limits assumed).
T1 construct: also called human ST2 protein; Interleukin 1 receptor-like 1
T1 sequence (looked up): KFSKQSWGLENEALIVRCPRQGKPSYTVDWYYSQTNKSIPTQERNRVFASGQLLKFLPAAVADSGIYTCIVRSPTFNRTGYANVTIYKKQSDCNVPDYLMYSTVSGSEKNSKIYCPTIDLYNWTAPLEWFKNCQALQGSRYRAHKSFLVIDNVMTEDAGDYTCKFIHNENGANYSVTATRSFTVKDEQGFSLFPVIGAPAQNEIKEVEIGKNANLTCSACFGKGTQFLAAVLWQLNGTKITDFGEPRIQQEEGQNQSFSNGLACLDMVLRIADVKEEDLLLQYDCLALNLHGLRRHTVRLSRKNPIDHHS
The experiment in a line: SPR (Carterra), antibody immobilized, ST2 analyte. The method, then:
Binding of the reformatted human ST2 antibodies to the human and mouse ST2 proteins was evaluated by surface plasmon resonance (SPR), using a high throughput antibody screening and characterization platform from Carterra (Salt Lake City, Utah).

B1: Human ST2 IgG1 Antibody 13 (antibody, V domains shown)
VH: QVQLVQSGAEVKKPGSSVKVSCKASGYTFTDYYMHWVRQAPGQGLEWMGGIMPLFGTIKYAQELQGRVTITADESTSTAYMELSSLRSEDTAVYYCARGRVGATDYWGQGTLVTVSS
VL: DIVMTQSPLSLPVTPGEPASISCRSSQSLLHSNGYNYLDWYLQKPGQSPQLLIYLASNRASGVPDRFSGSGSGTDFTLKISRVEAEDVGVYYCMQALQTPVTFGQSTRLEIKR
notes: IgG1; also called ST2 Antibody 13
Turning to B1, the Kd worked out at 201 nM, the koff amounted to 0.04 s⁻¹ and the kon stood at 200000 M⁻¹ s⁻¹.

B2: Human ST2 IgG1 Antibody 2 (antibody, V domains shown)
VH: QVQLVQSGAEVKKPGSSVKVSCKASGYTFSDYYVHWVRQAPGQGLEWMGGIIPIVGTANYAQKFQGRVTITADESTSTAYMELSSLRSEDTAVYYCARAGGGDYKSYYFDYWGRGTLVTVSS
VL: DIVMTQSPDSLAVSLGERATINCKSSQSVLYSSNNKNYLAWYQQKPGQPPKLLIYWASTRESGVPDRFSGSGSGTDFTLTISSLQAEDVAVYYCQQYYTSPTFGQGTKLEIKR
notes: IgG1; also called ST2 Antibody 2
Molecule B2 returned a Kd of 229 nM, a koff of 0.11 s⁻¹ and a kon of 500000 M⁻¹ s⁻¹.

B3: Human ST2 IgG1 Antibody 11 (antibody, V domains shown)
VH: QVQLVQSGAEVKKPGASVKVSCKASGGTFSSYAISWVRQAPGQGLEWMGWINPNSGGTNYAQKFQGRVTMTRDTSTSTVYMELSSLRSEDTAVYYCAMDTNYYYGMDVWGQGTTVTVSS
VL: DIQMTQSPSSLSASVGDRVTITCQASEDIANNLNWYQQKPGKAPKLLIYAASSLQSGVPSRFSGSGSGTDFTLTISSLQPEDFATYYCQQGYNIPFTFGQGTKLEIKR
notes: IgG1; also called ST2 Antibody 11
B3: binding was characterised by a dissociation constant (Kd) of 25 nM, the dissociation rate constant (koff) came to 0.019 s⁻¹ and the kon turned out to be 780000 M⁻¹ s⁻¹.

B4: Human ST2 IgG1 Antibody 3 (antibody, V domains shown)
VH: QVQLVQSGAEVKKPGSSVKVSCKASGGTFSSYAFSWVRQAPGQGLEWMGGIIPIFGTPNYAQKFQGRVTITADESTSTAYMELSSLRSEDTAVYYCARVRAKRPNWYFDLWGRGTLVTVSS
VL: not shown
notes: IgG1; also called ST2 Antibody 3
For the molecule B4, binding was characterised by a dissociation constant (Kd) of 146 nM, the koff came out at 0.042 s⁻¹ and the kon was 290000 M⁻¹ s⁻¹.

B5: Human ST2 IgG1 Antibody 1 (antibody, V domains shown)
VH: QVQLVQSGAEVKKPGSSVKVSCKASGGTFSSYAISWVRQAPGQGLEWMGGIIPIFGTANYAQKFQGRVTITADESTSTAYMELSSLRSEDTAVYYCAKSILGGRIFGGYFDLWGRGTLVTVSS
VL: DIVMTQSPLSLPVTPGEPASISCRSSQSLLHSNGYNYLDWYLQKPGQSPQLLIYAASSLQSGVPDRFSGSGSGTDFTLKISRVEAEDVGVYYCMQALQTPPTFGQGTKVEIKR
notes: IgG1; also called ST2 Antibody 1
The molecule B5 returned a Kd of 617 nM, an off-rate (koff) of 0.072 s⁻¹ and a kon of 120000 M⁻¹ s⁻¹.

B6: Human ST2 IgG1 Antibody 10 (antibody, V domains shown)
VH: QVQLVQSGAEVKKPGSSVKVSCKASGGTFGYYAISWVRQAPGQGLEWMGGIIPMVGTGQYAQEFQGRVTITADESTSTAYMELSSLRSEDTAVYYCAGVEVGATRGYFQHWGQGTLVTVSS
VL: B5 VL with S58T, A96G, L97T, Q98H, T99W, P101T, K108R, V109L
notes: IgG1; also called ST2 Antibody 10
B6: the equilibrium dissociation constant (Kd) came out at 131 nM, the koff was 0.079 s⁻¹ and the kon was 600000 M⁻¹ s⁻¹.

B7: Human ST2 IgG1 Antibody 8 (antibody, V domains shown)
VH: QVQLVQSGAEVKKPGASVKVSCKASGGTFSSYAISWVRQAPGQGLEWMGWISPDNGNTNYAQKLQGRVTMTRDTSTSTVYMELSSLRSEDTAVYYCARLAYDTGYYYYYYMDVWGKGTTVTVSS
VL: B5 VL with S58T, A96G, L97T, Q98H, T99W, P101L
notes: IgG1; also called ST2 Antibody 8
The molecule B7 had a dissociation constant Kd of 153 nM, a koff of 0.017 s⁻¹ and a kon of 110000 M⁻¹ s⁻¹.

B8: Human ST2 IgG1 Antibody 14 (antibody, V domains shown)
VH: QVQLVQSGAEVKKPGSSVKVSCKASGYTFTSYGISWVRQAPGQGLEWMGGIIPIFGTANYAPRFQGRVTITADESTSTAYMELSSLRSEDTAVYYCARDTVSMDVWGQGTTVTVSS
VL: B5 VL with A55D, S58N, Q60E, S61T, A96G, L97A, Q98H, T99W, V109L
notes: IgG1; also called ST2 Antibody 14
B8 returned a Kd of 42 nM, a koff of 0.017 s⁻¹ and an on-rate (kon) of 400000 M⁻¹ s⁻¹.

B9: Human ST2 IgG1 Antibody 5 (antibody, V domains shown)
VH: EVQLLESGGGLVQPGGSLRLSCAASGFTFSSYWMSWVRQAPGKGLEWVSSISSDTTYKYYADSVKGRFTISRDNSKNTLYLQMNSLRAEDTAVYYCAREVDTAMKNWGQGTLVTVSS
VL: DIQMTQSPSSLSASVGDRVTITCRASQGIGNDLAWYQQKPGKAPKLLIYAASSLQSGVPSRFSGSGSGTDFTLTISSLQPEDFATYYCQQSYSTPYTFGQGTKVEIKR
notes: IgG1; also called ST2 Antibody 5
B9 came in with a Kd of 190 nM, a koff of 0.048 s⁻¹ and an association rate constant (kon) of 250000 M⁻¹ s⁻¹.

B10: Human ST2 IgG1 Antibody 6 (antibody, V domains shown)
VH: EVQLLESGGGLVKPGGSLRLSCAASGFTFSSYWMSWVRQAPGKGLEWVSAIGGSGAGTYYADSVKGRFTISLDDSKNTLYLQMNSLKTEDTAVYYCARLSTVTRGFDYWGQGTLVTVSS
VL: B9 VL with G28S, G30S, D32W, A50S, S56N, Y96P
notes: IgG1; also called ST2 Antibody 6
Molecule B10 had a Kd of 166 nM, a dissociation rate constant (koff) of 0.057 s⁻¹ and a kon of 340000 M⁻¹ s⁻¹.

B11: Human ST2 IgG1 Antibody 9 (antibody, V domains shown)
VH: EVQLLESGGGLVQPGGSLRLSCAASGFAFSSHWMHWVRQAPGKGLEWVATISSGSHSIHYADSVKGRFTISRDNSKNTLYLQMNSLRAEDTAVYYCAREAGTSYYYYGMDVWGKGTTVTVSS
VL: B9 VL with R24Q, G28D, G30R, D32Y, A34N, A50K, Q55E, Y96P, Q100G
notes: IgG1; also called ST2 Antibody 9
B11 returned a dissociation constant Kd of 293 nM, a koff of 0.036 s⁻¹ and an on-rate constant (kon) of 120000 M⁻¹ s⁻¹.

B12: Human ST2 IgG1 Antibody 12 (antibody, V domains shown)
VH: QVQLVQSGAEVKKPGASVKVSCKASGYTFTGYYMHWVRQAPGQGLEWMGIIDPSGGGTSYAQKFQGRVTMTRDTSTSTVYMELSSLRSEDTAVYYCAKDIVVVPAAIANYYYGMDVWGQGTTVTVSS
VL: B9 VL with A25V, G30S, D32Y, A34N, A50G, S53T, Y96W, Q100P, E105D
notes: IgG1; also called ST2 Antibody 12
Turning to B12, the Kd was 217 nM, the koff is 0.024 s⁻¹ and the kon turned out to be 110000 M⁻¹ s⁻¹.

B13: Human ST2 IgG1 Antibody 7 (antibody, V domains shown)
VH: QVQLVQSGAEVKKPGASVKVSCKASGYTFTDSYIHWVRQAPGQGLEWMGWMNPNSGNTGYAQKFQGRVTMTRDTSTSTVYMELSSLRSEDTAVYYCARGVFDYGDYGYYYHYMDVWGKGTTVTVSS
VL: DIVMTQSPLSLPVTPGEPASISCRSSQSLLHSNGYNYLDWYLQKPGQSPQLLIYGASTLQPGVPDRFSGSGSGTDFTLKISRVEAEDVGVYYCMQGTQWPTFGQGTKLEIKR
notes: IgG1; also called ST2 Antibody 7
For B13, the equilibrium dissociation constant (Kd) stood at 15 nM, the koff stood at 0.0044 s⁻¹ and the association rate constant (kon) stood at 290000 M⁻¹ s⁻¹.

B14: Human ST2 IgG1 Antibody 4 (antibody, V domains shown)
VH: QVQLVQSGAEVKKPGSSVKVSCKASGGTFSTFGVSWVRQAPGQGLEWMGRIIPILATTNYAQKFQGRVTITADESTSTAYMELSSLRSEDTAVYYCASGDYYDSSGYYGYFQHWGQGTLVTVSS
VL: EIVMTQSPATLSVSPGERATLSCRASQSVSSSYLAWYQQKPGQAPRLLIYGASTRATGIPARFSGSGSGTEFTLTISSLQSEDFAVYYCQQSYSIPFTFGQGTKLEIKR
notes: IgG1; also called ST2 Antibody 4
Turning to B14, the dissociation constant Kd was found to be 12 nM, the koff came to 0.0025 s⁻¹ and the on-rate (kon) came to 210000 M⁻¹ s⁻¹.

The values above are taken from patent US20210403579A1 (DELINIA, published 2021).
